Tests used:
[1] = target: T1, Claudin 18.2 (CLDN18.2), expressed on CHOS-CLDN 18.2 / HEK293-CLDN 18.2 / HCC827-CLDN 18.2 cells (human, UniProt P56856-2 1-261); assay: FACS, CHOS-CLDN18.2 cells, 0.078 µg/ml
T1 construct: whole, on cells; The species is not repeated for the CHOS-CLDN 18.2 cells; also called claudin-18A2

[2] = target: T1, Claudin 18.2 (CLDN18.2), expressed on …; assay: FACS, CHOS-CLDN18.2 cells, 20 µg/ml
[3] = target: T1, Claudin 18.2 (CLDN18.2), expressed on …; assay: FACS, CHOS-CLDN18.2 cells, 10 µg/ml
[4] = target: T1, Claudin 18.2 (CLDN18.2), expressed on …; assay: FACS, CHOS-CLDN18.2 cells, 5 µg/ml
[5] = target: T1, Claudin 18.2 (CLDN18.2), expressed on …; assay: FACS, CHOS-CLDN18.2 cells, 0 µg/ml (background)
[6] = target: T1, Claudin 18.2 (CLDN18.2), expressed on …; assay: FACS, CHOS-CLDN18.2 cells, 0.020 µg/ml
[7] = target: T1, Claudin 18.2 (CLDN18.2), expressed on …; assay: FACS, MFI on CHOS-CLDN18.2 over MFI on CHOS-CLDN18.1, 10 µg/ml
[8] = target: T1, Claudin 18.2 (CLDN18.2), expressed on …; assay: FACS, CHOS-CLDN18.2 cells, 1.250 µg/ml
[9] = target: T1, Claudin 18.2 (CLDN18.2), expressed on …; assay: FACS, CHOS-CLDN18.2 cells
[10] = target: T1, Claudin 18.2 (CLDN18.2), expressed on …; assay: FACS, CHOS-CLDN18.2 cells, 0.005 µg/ml
[11] = target: T1, Claudin 18.2 (CLDN18.2), expressed on …; assay: FACS, CHOS-CLDN18.2 cells, 0.313 µg/ml
[12] = target: T1, Claudin 18.2 (CLDN18.2), expressed on …; assay: cell-based or functional assay
[13] = target: T2, PD-L1 Protein, Cynomolgus, Recombinant (His Tag) (cynomolgus); assay: SPR Biacore T200, antibody captured, PD-L1 His as analyte, 1:1 binding
T2 construct: Bought protein; also called QPP10.1; SinoBiologic 90251-C08H

[14] = target: T3, PD-L1 Protein, Human, Recombinant (His Tag) (human, UniProt Q9NZQ7 19-239); assay: as above
T3 construct: Bought protein; also called QPP09.1; SinoBiologic 10084-H08H
T3 sequence (Q9NZQ7 19-239 limits assumed): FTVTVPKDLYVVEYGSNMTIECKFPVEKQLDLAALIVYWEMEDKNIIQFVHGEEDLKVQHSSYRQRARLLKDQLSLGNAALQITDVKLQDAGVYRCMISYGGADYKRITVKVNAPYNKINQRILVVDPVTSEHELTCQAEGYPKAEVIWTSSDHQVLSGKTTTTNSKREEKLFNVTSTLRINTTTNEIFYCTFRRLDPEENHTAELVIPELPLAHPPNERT

Row | Binder | FACS reading [1] | FACS reading [2] | MFI [3] | FACS reading [4] | FACS reading [5] | FACS reading [6] | CLDN18.2/CLDN18.1 (MFI ratio) [7] | FACS reading [8] | EC50 [9] [mg/L] | max [9] | FACS reading [10] | FACS reading [11] | Kd [13] [nM] | koff [13] [s⁻¹] | kon [13] [M⁻¹ s⁻¹] | Kd [14] [nM] | koff [14] [s⁻¹] | kon [14] [M⁻¹ s⁻¹] | further results
1 | QP14641461 (antibody, human IgG1, kappa, V domains shown, Humanized from QP207208) VH: EVQLVQSGAEVKKPGASVKVSCKASGYTFTSYIMHWVRQAPGQGLEWIGYINPYNDGTKYNEKFKGRVTLTRDKSTSTVYMELSSLRSEDTAVYYCARLGFTTRNAMDYWGQGTLVTVSS VL: DIVMTQSPDSLAVSLGERATINCKSSQSLLNSGNQKNYLAWYQQKPGQPPKLLIYGASTRESGVPDRFTGSGSGTDFTLTISSLQAEDVAVYYCQNDHSYPFTFGQGTKLEIKR | 46300 | 99500 | 721000 | 166000 | 732 | 19900 | 709 | 160000 | 0.165 | 166000 | 5980 | 97500 |  |  |  |  |  |  | 
2 | QP325 (Fc fusion, Humanization design of QP1166; VHH-Fc; also called 1166-V3; QD325; not shown: human IgG1-FC constant region fused to the C terminal of the VHH) EVQLLESGGGLVQPGGSLRLSCAASGFTYGTYAMSWFRQAPGKGLEGVACIDIYGRTSYTDPVKGRFTISQDNSKNTLYLQMNSLRAEDTAVYYCAARDFGYCTASWVHEGFSRYWGQGTLVTVSS |  |  |  |  |  |  |  |  |  |  |  |  | 19.6 | 0.00416 | 212000 | 10.7 | 0.004 | 375000 | 
3 | QP1166 (Fc fusion, Chimeric antibody before humanization; also called QD1166; nanobody QP1166; not shown: Fc part: called chimeric antibody, cloned in vector VH-FC-pQD) QVQLVESGGDSVQPGGSLRLSCAASGFTYGTYAMSWFRQAPGKEREGVACIDIYGRTSYTDPVKGRFTISQDNAKNTLYLQMNSLKPEDTAMYYCAARDFGYCTASWVHEGFSRYWGQGTQVTVSS |  |  |  |  |  |  |  |  |  |  |  |  | 5.6 | 0.00266 | 475000 | 2.63 | 0.00255 | 968000 | 
4 | QP1162 (Fc fusion, Chimeric antibody before humanization; also called QD1162; nanobody QP1162; not shown: Fc part: called chimeric antibody, cloned in vector VH-FC-pQD) QVQLVESGGGSVQSGGSLRLSCAASGFTYGTYAMSWFRQAPGKEREGVACIDIYGRASYTDPVKGRFTISQDNAKNTLYLQMNSLKPEDTAMYYCAARDFGYCTASWVHEGFSRYWGQGTQVTVSS |  |  |  |  |  |  |  |  |  |  |  |  | 5.6 | 0.00401 | 715000 | 2.77 | 0.00379 | 1.37e+06 | 

Second part, led by results:

Row | FACS reading [1] | FACS reading [2] | MFI [3] | FACS reading [4] | FACS reading [5] | FACS reading [6] | CLDN18.2/CLDN18.1 (MFI ratio) [7] | FACS reading [8] | EC50 [9] [mg/L] | max [9] | FACS reading [10] | FACS reading [11] | Kd [13] [nM] | koff [13] [s⁻¹] | kon [13] [M⁻¹ s⁻¹] | Kd [14] [nM] | koff [14] [s⁻¹] | kon [14] [M⁻¹ s⁻¹] | Binder | further results
5 | 29300 | 117000 | 758000 | 224000 | 732 | 15800 | 718 | 170000 | 0.306 | 224000 | 8450 | 93600 |  |  |  |  |  |  | QP14641462 (antibody, human IgG1, kappa, V domains shown, Humanized from QP207208) VH: EVQLVQSGAEVKKPGASVKVSCKASGYTFTSYIMHWVRQAPGQGLEWIGYINPYNDGTKYNEKFKGRVTLTRDKSTSTVYMELSSLRSEDTAVYYCARLGFTTRNAMDYWGQGTLVTVSS VL: DIVMTQSPDSLAVSLGERATINCKSSQSLLNSGNQKNYLAWYQQKPGQPPKLLIYGASTRESGVPDRFTGSGSGTDFTLTISSVQAEDVAVYYCQNDHSYPFTFGQGTKLEIKR | 
6 | 44300 | 114000 | 604000 | 191000 | 732 | 16200 | 579 | 146000 | 0.0936 | 191000 | 6600 | 151000 |  |  |  |  |  |  | QP14641460 (antibody, human IgG1, kappa, V domains shown, Humanized from QP207208) VH: EVQLVQSGAEVKKPGASVKVSCKASGYTFTSYIMHWVRQAPGQGLEWIGYINPYNDGTKYNEKFKGRVTLTRDKSTSTVYMELSSLRSEDTAVYYCARLGFTTRNAMDYWGQGTLVTVSS VL: DIVMTQSPDSLAVSLGERATINCKSSQSLLNSGNQKNYLAWYQQKPGQPPKLLIYGASTRESGVPDRFSGSGSGTDFTLTISSLQAEDVAVYYCQNDHSYPFTFGQGTKLEIKR | 
7 | 51400 | 131000 | 657000 | 227000 | 732 | 19300 | 700 | 201000 | 0.156 | 227000 | 7790 | 144000 |  |  |  |  |  |  | QP14631461 (antibody, human IgG1, kappa, V domains shown, also called QP14611463) VH: QVQLVQSGAEVKKPGASVKVSCKASGYTFTSYIMHWVRQAPGQGLEWMGYINPYNDGTKYNEKFKGRVTMTRDTSTSTVYMELSSLRSEDTAVYYCARLGFTTRNAMDYWGQGTLVTVSS VL: DIVMTQSPDSLAVSLGERATINCKSSQSLLNSGNQKNYLAWYQQKPGQPPKLLIYGASTRESGVPDRFTGSGSGTDFTLTISSLQAEDVAVYYCQNDHSYPFTFGQGTKLEIKR | EC50 of killing, ADCC (PBMC, HEK293-CLDN18.2 cells) [12]: 0.0115 mg/L; Killing percentage, ADCC (PBMC, HEK293-CLDN18.2 cells), 0 µg/ml [12]: 4.88%; Killing percentage, ADCC (PBMC, HEK293-CLDN18.2 cells), 0.0001024 µg/ml [12]: 4.3%; Killing percentage, ADCC (PBMC, HEK293-CLDN18.2 cells), 0.000512 µg/ml [12]: 5.65%; Killing percentage, ADCC (PBMC, HEK293-CLDN18.2 cells), 0.00256 µg/ml [12]: 10.2%; Killing percentage, ADCC (PBMC, HEK293-CLDN18.2 cells), 0.0128 µg/ml [12]: 23.4%; Killing percentage, ADCC (PBMC, HEK293-CLDN18.2 cells), 0.064 µg/ml [12]: 39.3%; Killing percentage, ADCC (PBMC, HEK293-CLDN18.2 cells), 0.32 µg/ml [12]: 43.8%; Killing percentage, ADCC (PBMC, HEK293-CLDN18.2 cells), 1.6 µg/ml [12]: 43.4%; Killing percentage, ADCC (PBMC, HEK293-CLDN18.2 cells), 8 µg/ml [12]: 46.3%; Killing percentage, ADCC (PBMC, HEK293-CLDN18.2 cells), 40 µg/ml [12]: 28.6%
8 | 50300 | 174000 | 595000 | 189000 | 732 | 19600 | 596 | 219000 | 0.186 | 189000 | 7190 | 134000 |  |  |  |  |  |  | QP14651460 (antibody, human IgG1, kappa, V domains shown, Humanized from QP207208) VH: EVQLVQSGAEVKKPGASVKVSCKASGYTFTSYIMHWVRQAPGQGLEWIGYINPYNDGTKYNEKFKGRVTLTSDKSTSTVYMELSSLRSEDTAVYYCARLGFTTRNAMDYWGQGTLVTVSS VL: DIVMTQSPDSLAVSLGERATINCKSSQSLLNSGNQKNYLAWYQQKPGQPPKLLIYGASTRESGVPDRFSGSGSGTDFTLTISSLQAEDVAVYYCQNDHSYPFTFGQGTKLEIKR | 
9 | 24700 | 117000 | 627000 | 187000 | 732 | 11500 | 476 | 149000 | 0.267 | 187000 | 5090 | 90200 |  |  |  |  |  |  | QP207208 (antibody, human IgG1, V domains shown, Chimeric; also called 51A3; mouse-derived chimeric antibody QP207208) VH: EVQLQQSGPELVKPGASVKMSCKASGYTFTSYIMHWVKQKPGQGLEWIGYINPYNDGTKYNEKFKGKATLTSDKSSSTVYMELSSLTSEDSAVYCCARLGFTTRNAMDYWGQGTSVTVSS VL: DIVMTQSPSSLSVSAGEKVTMNCKSSQSLLNSGNQKNYLAWYQQKPGQPPKLLIYGASTRESGVPDRFTGSGSGTDFTLTISSVQAEDLAVYYCQNDHSYPFTFGSGTKLEIK | 
